Reference: patent US20220401557A1 (Chugai, published 2022)

Target: CD3 on NFAT-RE-luc2-Jurkat cells (human, UniProt P07766 23-207)
Experiment: cell-based or functional assay

Chain of CD3 on NFAT-RE-luc2-Jurkat cells (P07766 23-207): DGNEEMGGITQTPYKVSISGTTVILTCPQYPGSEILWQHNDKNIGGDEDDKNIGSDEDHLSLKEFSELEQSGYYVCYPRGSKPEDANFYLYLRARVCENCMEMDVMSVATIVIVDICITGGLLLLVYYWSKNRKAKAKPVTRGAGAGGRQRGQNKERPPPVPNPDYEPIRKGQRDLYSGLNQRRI

Binder	increase rate due to the protease treatment (luciferase, uPA-treated / untreated), antibody 0.1 nM	increase rate due to the protease treatment (luciferase, uPA-treated / untreated), antibody 1 nM
ANuPA20/GLS//GCH065 (bispecific antibody, human IgG1, kappa, N297A) heavy 1: QDGNEEMGGITQTPYKVSISLSGRSDNHGGGSQVQLVESGGGLVQPGRSLRLSCAASGFTFSNAWMHWVRQAPGKGLEWVAQIKDKANGYNAYYAESVKGRFTISRDDSKNSIYLQMNSLKTEDTAVYYCRYVHYTTYAGFSYKFGVDAWGQGTTVTVSSASTKGPSVFPLAPSSKSTSGGTAALGCLVKDYFPEPVTVSWNSGALTSGVHTFPAVLQSSGLYSLSSVVTVPSSSLGTQTYICNVNHKPSNTKVDKKVEPKSCDKTHTCPPCPAPELRGGPKVFLFPPKPKDTLMISRTPEVTCVVVDVSHEDPEVKFNWYVDGVEVHNAKTKPREEQYASTYRVVSVLTVLHQDWLNGKEYKCKVSNKALPAPIEKTISKAKGQPREPQVYTLPPSRKEMTKNQVSLTCLVKGFYPSDIAVEWESNGQPENNYKTTPPYLDSDGSFFLYSKLTVDKSRWQQGNVFSCSVMHEALHNHYTQKSLSLSP light 1: DIVMTQSPLSLPVTPGEPASISCRSSQSLVHSNRNTYLHWYQQKPGQAPRLLIYKVSNRFSGVPDRFSGSGSGTDFTLKISRVEAEDVGVYYCGQGTQVPYTFGQGTKLEIKRTVAAPSVFIFPPSDEQLKSGTASVVCLLNNFYPREAKVQWKVDNALQSGNSQESVTEQDSKDSTYSLSSTLTLSKADYEKHKVYACEVTHQGLSSPVTKSFNRGEC heavy 2: QVQLVQSGAEVKKPGASVTVSCKASGYTFTDYEMHWIRQPPGEGLEWIGAIDGPTPDTAYSEKFKGRVTLTADKSTSTAYMELSSLTSEDTAVYYCTRFYSYTYWGQGTLVTVSSASTKGPSVFPLAPSSKSTSGGTAALGCLVKDYFPEPVTVSWNSGALTSGVHTFPAVLQSSGLYSLSSVVTVPSSSLGTQTYICNVNHKPSNTKVDKKVEPKSCDKTHTCPPCPAPELRGGPKVFLFPPKPKDTLMISRTPEVTCVVVDVSHEDPEVKFNWYVDGVEVHNAKTKPREEQYASTYRVVSVLTVLHQDWLNGKEYKCKVSNKALPAPIEKTISKAKGQPREPQVYTLPPSREEMTKNQVSLTCLVKGFYPSDIAVEWESNGQPENNYKTTPPYLDSDGSFFLYSKLTVDKSRWQQGNVFSCSVMHEALHNHYTQESLSLSP light 2: DIVMTQSPLSLPVTPGEPASISCRSSQPLVHSNRNTYLHWYQQKPGQAPRLLIYKVSNRFSGVPDRFSGSGSGTDFTLKISRVEAEDVGVYYCGQGTQVPYTFGQGTKLEIKRTVAAPSVFIFPPSDEQLKSGTASVVCLLNNFYPREAKVQWKVDNALQSGNSQESVTEQDSKDSTYSLSSTLTLSKADYEKHKVYACEVTHQGLSSPVTKSFNRGEC	1.5 ratio	2.2 ratio
ANuPA27/GLS//GCH065 (bispecific antibody, human IgG1, kappa, N297A) heavy 1: QDGNEEMGGITQTPYKVSISGTTVILTLSGRSDNHQVQLVESGGGLVQPGRSLRLSCAASGFTFSNAWMHWVRQAPGKGLEWVAQIKDKANGYNAYYAESVKGRFTISRDDSKNSIYLQMNSLKTEDTAVYYCRYVHYTTYAGFSYKFGVDAWGQGTTVTVSSASTKGPSVFPLAPSSKSTSGGTAALGCLVKDYFPEPVTVSWNSGALTSGVHTFPAVLQSSGLYSLSSVVTVPSSSLGTQTYICNVNHKPSNTKVDKKVEPKSCDKTHTCPPCPAPELRGGPKVFLFPPKPKDTLMISRTPEVTCVVVDVSHEDPEVKFNWYVDGVEVHNAKTKPREEQYASTYRVVSVLTVLHQDWLNGKEYKCKVSNKALPAPIEKTISKAKGQPREPQVYTLPPSRKEMTKNQVSLTCLVKGFYPSDIAVEWESNGQPENNYKTTPPYLDSDGSFFLYSKLTVDKSRWQQGNVFSCSVMHEALHNHYTQKSLSLSP light 1: DIVMTQSPLSLPVTPGEPASISCRSSQSLVHSNRNTYLHWYQQKPGQAPRLLIYKVSNRFSGVPDRFSGSGSGTDFTLKISRVEAEDVGVYYCGQGTQVPYTFGQGTKLEIKRTVAAPSVFIFPPSDEQLKSGTASVVCLLNNFYPREAKVQWKVDNALQSGNSQESVTEQDSKDSTYSLSSTLTLSKADYEKHKVYACEVTHQGLSSPVTKSFNRGEC heavy 2: QVQLVQSGAEVKKPGASVTVSCKASGYTFTDYEMHWIRQPPGEGLEWIGAIDGPTPDTAYSEKFKGRVTLTADKSTSTAYMELSSLTSEDTAVYYCTRFYSYTYWGQGTLVTVSSASTKGPSVFPLAPSSKSTSGGTAALGCLVKDYFPEPVTVSWNSGALTSGVHTFPAVLQSSGLYSLSSVVTVPSSSLGTQTYICNVNHKPSNTKVDKKVEPKSCDKTHTCPPCPAPELRGGPKVFLFPPKPKDTLMISRTPEVTCVVVDVSHEDPEVKFNWYVDGVEVHNAKTKPREEQYASTYRVVSVLTVLHQDWLNGKEYKCKVSNKALPAPIEKTISKAKGQPREPQVYTLPPSREEMTKNQVSLTCLVKGFYPSDIAVEWESNGQPENNYKTTPPYLDSDGSFFLYSKLTVDKSRWQQGNVFSCSVMHEALHNHYTQESLSLSP light 2: DIVMTQSPLSLPVTPGEPASISCRSSQPLVHSNRNTYLHWYQQKPGQAPRLLIYKVSNRFSGVPDRFSGSGSGTDFTLKISRVEAEDVGVYYCGQGTQVPYTFGQGTKLEIKRTVAAPSVFIFPPSDEQLKSGTASVVCLLNNFYPREAKVQWKVDNALQSGNSQESVTEQDSKDSTYSLSSTLTLSKADYEKHKVYACEVTHQGLSSPVTKSFNRGEC	0.9 ratio	0.9 ratio

Further lines, results first:

increase rate due to the protease treatment (luciferase, uPA-treated / untreated), antibody 0.1 nM	increase rate due to the protease treatment (luciferase, uPA-treated / untreated), antibody 1 nM	Binder
1.9 ratio	3 ratio	ANuPA04/GLS//GCH065 (bispecific antibody, human IgG1, kappa, N297A) heavy 1: QDGNEEMGGGSGGGSGGGSLSGRSDNHGGGSQVQLVESGGGLVQPGRSLRLSCAASGFTFSNAWMHWVRQAPGKGLEWVAQIKDKANGYNAYYAESVKGRFTISRDDSKNSIYLQMNSLKTEDTAVYYCRYVHYTTYAGFSYKFGVDAWGQGTTVTVSSASTKGPSVFPLAPSSKSTSGGTAALGCLVKDYFPEPVTVSWNSGALTSGVHTFPAVLQSSGLYSLSSVVTVPSSSLGTQTYICNVNHKPSNTKVDKKVEPKSCDKTHTCPPCPAPELRGGPKVFLFPPKPKDTLMISRTPEVTCVVVDVSHEDPEVKFNWYVDGVEVHNAKTKPREEQYASTYRVVSVLTVLHQDWLNGKEYKCKVSNKALPAPIEKTISKAKGQPREPQVYTLPPSRKEMTKNQVSLTCLVKGFYPSDIAVEWESNGQPENNYKTTPPYLDSDGSFFLYSKLTVDKSRWQQGNVFSCSVMHEALHNHYTQKSLSLSP light 1: DIVMTQSPLSLPVTPGEPASISCRSSQSLVHSNRNTYLHWYQQKPGQAPRLLIYKVSNRFSGVPDRFSGSGSGTDFTLKISRVEAEDVGVYYCGQGTQVPYTFGQGTKLEIKRTVAAPSVFIFPPSDEQLKSGTASVVCLLNNFYPREAKVQWKVDNALQSGNSQESVTEQDSKDSTYSLSSTLTLSKADYEKHKVYACEVTHQGLSSPVTKSFNRGEC heavy 2: QVQLVQSGAEVKKPGASVTVSCKASGYTFTDYEMHWIRQPPGEGLEWIGAIDGPTPDTAYSEKFKGRVTLTADKSTSTAYMELSSLTSEDTAVYYCTRFYSYTYWGQGTLVTVSSASTKGPSVFPLAPSSKSTSGGTAALGCLVKDYFPEPVTVSWNSGALTSGVHTFPAVLQSSGLYSLSSVVTVPSSSLGTQTYICNVNHKPSNTKVDKKVEPKSCDKTHTCPPCPAPELRGGPKVFLFPPKPKDTLMISRTPEVTCVVVDVSHEDPEVKFNWYVDGVEVHNAKTKPREEQYASTYRVVSVLTVLHQDWLNGKEYKCKVSNKALPAPIEKTISKAKGQPREPQVYTLPPSREEMTKNQVSLTCLVKGFYPSDIAVEWESNGQPENNYKTTPPYLDSDGSFFLYSKLTVDKSRWQQGNVFSCSVMHEALHNHYTQESLSLSP light 2: DIVMTQSPLSLPVTPGEPASISCRSSQPLVHSNRNTYLHWYQQKPGQAPRLLIYKVSNRFSGVPDRFSGSGSGTDFTLKISRVEAEDVGVYYCGQGTQVPYTFGQGTKLEIKRTVAAPSVFIFPPSDEQLKSGTASVVCLLNNFYPREAKVQWKVDNALQSGNSQESVTEQDSKDSTYSLSSTLTLSKADYEKHKVYACEVTHQGLSSPVTKSFNRGEC
1 ratio	0.9 ratio	hCE115HA/GLSGS//GCH065 (bispecific antibody, human IgG1, kappa, N297A) heavy 1: QVQLVESGGGVVQPGRSLRLSCAASGFTFSNAWMHWVRQAPGKGLEWVAQIKAKSNNYATYYAESVKGRFTISRDDSKNSLYLQMNSLKTEDTAVYYCRYVHYGAYYGVDAWGQGTTVTVSSASTKGPSVFPLAPSSKSTSGGTAALGCLVKDYFPEPVTVSWNSGALTSGVHTFPAVLQSSGLYSLSSVVTVPSSSLGTQTYICNVNHKPSNTKVDKKVEPKSCDKTHTCPPCPAPELRGGPKVFLFPPKPKDTLMISRTPEVTCVVVDVSHEDPEVKFNWYVDGVEVHNAKTKPREEQYASTYRVVSVLTVLHQDWLNGKEYKCKVSNKALPAPIEKTISKAKGQPREPQVYTLPPSRKEMTKNQVSLTCLVKGFYPSDIAVEWESNGQPENNYKTTPPYLDSDGSFFLYSKLTVDKSRWQQGNVFSCSVMHEALHNHYTQKSLSLSP light 1: QDGNEGGGSGGGSGGGSDIVMTQSPLSLPVTPGEPASISCRSSQSLVHSNRNTYLHWYQQKPGQAPRLLIYKVSNRFSGVPDRFSGSGSGTDFTLKISRVEAEDVGVYYCGQGTQVPYTFGQGTKLEIKRTVAAPSVFIFPPSDEQLKSGTASVVCLLNNFYPREAKVQWKVDNALQSGNSQESVTEQDSKDSTYSLSSTLTLSKADYEKHKVYACEVTHQGLSSPVTKSFNRGEC heavy 2: QVQLVQSGAEVKKPGASVTVSCKASGYTFTDYEMHWIRQPPGEGLEWIGAIDGPTPDTAYSEKFKGRVTLTADKSTSTAYMELSSLTSEDTAVYYCTRFYSYTYWGQGTLVTVSSASTKGPSVFPLAPSSKSTSGGTAALGCLVKDYFPEPVTVSWNSGALTSGVHTFPAVLQSSGLYSLSSVVTVPSSSLGTQTYICNVNHKPSNTKVDKKVEPKSCDKTHTCPPCPAPELRGGPKVFLFPPKPKDTLMISRTPEVTCVVVDVSHEDPEVKFNWYVDGVEVHNAKTKPREEQYASTYRVVSVLTVLHQDWLNGKEYKCKVSNKALPAPIEKTISKAKGQPREPQVYTLPPSREEMTKNQVSLTCLVKGFYPSDIAVEWESNGQPENNYKTTPPYLDSDGSFFLYSKLTVDKSRWQQGNVFSCSVMHEALHNHYTQESLSLSP light 2: DIVMTQSPLSLPVTPGEPASISCRSSQPLVHSNRNTYLHWYQQKPGQAPRLLIYKVSNRFSGVPDRFSGSGSGTDFTLKISRVEAEDVGVYYCGQGTQVPYTFGQGTKLEIKRTVAAPSVFIFPPSDEQLKSGTASVVCLLNNFYPREAKVQWKVDNALQSGNSQESVTEQDSKDSTYSLSSTLTLSKADYEKHKVYACEVTHQGLSSPVTKSFNRGEC
